These results are taken from US20150361138A1 (INSTITUT NATIONAL DE LA RECHERCHE AGRONOMIQUE, published 2015).

What all share (assay): cell-based or functional assay
The target in assay [1] is T1, human KISS1R receptor (human, UniProt Q969F8 1-398).
The target of assay [2] is T1, human KISS1R receptor. The source holds these as a separate data set.
In assay [3] the target is T1, human KISS1R receptor. This is another data set of the same source.

Read-outs that look alike come from different tables or passages of the source. *1 amine or outer side, *2 acyl side, *3 side chain or, on linkers, in order; H or OH if unused. Side-chain parts run from the residue outwards. [ ]: non-standard residue; d: D form. The star is where a group is joined. TTDS = 1,13-diamino-4,7,10-trioxatridecan-succinic acid spacer arm, O=C(CCC(=O)[*:2])NCCCOCCOCCOCCCN[*:1]; PEG5000 = COCH2CH2NH(CH2CH2O)nMe, about 5000 g/mol; γGlu = O=C(O)[C@H](CCC(=O)[*:2])N[*:1]; Arg(Me) = CNC(=N)NCCC[C@H](N)C(=O)O; Palmitoyl = CCCCCCCCCCCCCCCC(=O)*

T1 sequence (Q969F8 whole entry): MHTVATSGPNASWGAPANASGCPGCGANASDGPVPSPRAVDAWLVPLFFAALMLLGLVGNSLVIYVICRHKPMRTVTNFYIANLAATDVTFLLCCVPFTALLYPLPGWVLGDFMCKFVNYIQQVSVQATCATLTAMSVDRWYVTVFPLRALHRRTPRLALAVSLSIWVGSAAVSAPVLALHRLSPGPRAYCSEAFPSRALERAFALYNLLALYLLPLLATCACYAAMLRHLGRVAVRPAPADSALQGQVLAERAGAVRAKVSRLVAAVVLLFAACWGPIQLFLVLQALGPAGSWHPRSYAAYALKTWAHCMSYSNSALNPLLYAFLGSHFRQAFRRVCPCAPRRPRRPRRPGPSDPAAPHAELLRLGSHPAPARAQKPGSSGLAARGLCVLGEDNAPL

With “peptide compound C7, Ac-DTyr-Hyp-Asn-Thr-Phe-GlyΨ[Tz]Leu-Arg(Me)-Trp-NH2”, in the assay with human KISS1R receptor [1], the EC50 (nM), intracellular calcium mobilization of cells expressing human KISS1R is 0.014 nM.
Same read-out and setting: with “peptide compound C6, Ac-DTyr-DTrp-Asn-Thr-Phe-GlyΨ[Tz]Leu-Arg(Me)-Trp-NH2” the figure was 0.01 nM.

B1: peptide compound C4, Ac-Tyr-Asn-Lys(Ac)-Asn-Ser-Phe-GlyΨ[Tz]Leu-Arg(Me)-Tyr-NH2 (peptide)
peptide: Ac-YNK(Ac)NSFGL[Arg(Me)]Y-NH2
modifications: also: Gly7-Leu8 peptide bond replaced by 1,4-disubstituted 1,2,3-triazole
Turning to B1, in the assay with human KISS1R receptor [2], the “EC50 (nM), intracellular calcium mobilization of cells expressing human KISS1R” value worked out at 0.011 nM.

B2: peptide compound C2, Ac-Tyr-Asn-Trp-Asn-Ser-Phe-GlyΨ[Tz]Leu-Arg-Tyr-NH2 (peptide)
peptide: Ac-YNWNSFGLRY-NH2
modifications: also: Gly7-Leu8 peptide bond replaced by 1,4-disubstituted 1,2,3-triazole
Regarding B2, the “EC50 (nM), intracellular calcium mobilization of cells expressing human KISS1R” value with human KISS1R receptor [2] turned out to be 0.029 nM.

B3: peptide compound C16, Ac-Tyr-Lys(PEG5000)-Trp-Asn-Ser-Phe-GlyΨ[Tz]Leu-Arg-Tyr-NH2 (peptide)
peptide: Ac-YK(PEG5000)WNSFGLRY-NH2
modifications: also: Gly7-Leu8 peptide bond replaced by 1,4-disubstituted 1,2,3-triazole
With B3, the “EC50 (nM), intracellular calcium mobilization of cells expressing human KISS1R” value with human KISS1R receptor [3] is 4.17 nM.

B4: peptide compound C9, γ-(N-hexadecanoyl-Glu-OH)-Tyr-Asn-Trp-Asn-Ser-Phe-GlyΨ[Tz]Leu-Arg-Tyr-NH2 (peptide)
peptide: {Palmitoyl-γGlu}-YNWNSFGLRY-NH2
modifications: also: Gly7-Leu8 peptide bond replaced by 1,4-disubstituted 1,2,3-triazole
In the case of B4, the “EC50 (nM), intracellular calcium mobilization of cells expressing human KISS1R” value in the assay with human KISS1R receptor [3] is less than 0.001 nM.

B5: comparative peptide compound Comp.1 (mKP10), H-Tyr-Asn-Trp-Asn-Ser-Phe-Gly-Leu-Arg-Tyr-NH2 (peptide)
peptide: H-YNWNSFGLRY-NH2
As to B5, the “EC50 (nM), intracellular calcium mobilization of cells expressing human KISS1R” value with human KISS1R receptor [2] amounted to 2.9 nM.

B6: peptide compound C5, Ac-Tyr-Asn-Trp-Asn-Ser-PheΨ[Tz]GlyΨ[Tz]Leu-Arg-Tyr-NH2 (peptide)
peptide: Ac-YNWNSFGLRY-NH2
modifications: also: Phe6-Gly7 and Gly7-Leu8 peptide bonds replaced by 1,4-disubstituted 1,2,3-triazoles
For the molecule B6, in the assay with human KISS1R receptor [2], the “EC50 (nM), intracellular calcium mobilization of cells expressing human KISS1R” value was found to be 44 nM.

B7: peptide compound C12, γ-(N-hexadecanoyl-Glu-OH)Tyr-Asn-Trp-Asn-Ser-Phe-GlyΨ[Tz]Leu-Arg(Me)-Tyr-NH2 (peptide)
peptide: {Palmitoyl-γGlu}-YNWNSFGL[Arg(Me)]Y-NH2
modifications: also: Gly7-Leu8 peptide bond replaced by 1,4-disubstituted 1,2,3-triazole
Take B7: the “EC50 (nM), intracellular calcium mobilization of cells expressing human KISS1R” value in the assay with human KISS1R receptor [3] was less than 0.001 nM.

B8: peptide compound C1, H-Tyr-Asn-Trp-Asn-Ser-Phe-GlyΨ[Tz]Leu-Arg-Tyr-NH2 (peptide)
peptide: H-YNWNSFGLRY-NH2
modifications: also: Gly7-Leu8 peptide bond replaced by 1,4-disubstituted 1,2,3-triazole
For B8, the “EC50 (nM), intracellular calcium mobilization of cells expressing human KISS1R” value in the assay with human KISS1R receptor [2] came to 0.5 nM.

B9: peptide compound C11, Ac-Tyr-Asn-Lys(γ-(N-hexadecanoyl-Glu-OH))-Asn-Ser-Phe-GlyΨ[Tz]Leu-Arg-Tyr-NH2 (peptide)
peptide: Ac-YNK([γGlu-Palmitoyl])NSFGLRY-NH2
modifications: also: Gly7-Leu8 peptide bond replaced by 1,4-disubstituted 1,2,3-triazole
For B9, in the assay with human KISS1R receptor [3], the “EC50 (nM), intracellular calcium mobilization of cells expressing human KISS1R” value came to 90 nM.

B10: peptide compound C15, Ac-Tyr-Lys[2-(succinamido)-6-(4-(4-iodophenyl)butanamido)hexanoate]-Trp-Asn-Ser-Phe-GlyΨ[Tz]Leu-Arg-Tyr-NH2 (peptide)
peptide: Ac-YK(2‑(succinamido)‑6‑(4-(4-iodophenyl)butanamido)hexanoate)WNSFGLRY-NH2
modifications: also: Gly7-Leu8 peptide bond replaced by 1,4-disubstituted 1,2,3-triazole
With B10, in the assay with human KISS1R receptor [3], the “EC50 (nM), intracellular calcium mobilization of cells expressing human KISS1R” value was 0.001 nM.

B11: peptide compound Comp.3, Ac-Tyr-Asn-Trp-Asn-Ser-Phe-Gly-Leu-Arg-Tyr-NH2 (peptide)
peptide: Ac-YNWNSFGLRY-NH2
For B11, the “EC50 (nM), intracellular calcium mobilization of cells expressing human KISS1R” value with human KISS1R receptor [2] was 0.1 nM.

B12: peptide compound C14, Ac-Tyr-Lys(TTDS-(γ-(N-hexadecanoyl-Glu-OH)))-Trp-Asn-Ser-Phe-GlyΨ[Tz]Leu-Arg-Tyr-NH2 (peptide)
peptide: Ac-YK([TTDS-γGlu-Palmitoyl])WNSFGLRY-NH2
modifications: also: Gly7-Leu8 peptide bond replaced by 1,4-disubstituted 1,2,3-triazole
For B12, the “EC50 (nM), intracellular calcium mobilization of cells expressing human KISS1R” value with human KISS1R receptor [3] was found to be 0.079 nM.

B13: peptide compound C8, Ac-Tyr-Lys(γ-(N-hexadecanoyl-Glu-OH))-Trp-Asn-Ser-Phe-GlyΨ[Tz]Leu-Arg-Tyr-NH2 (peptide)
peptide: Ac-YK([γGlu-Palmitoyl])WNSFGLRY-NH2
modifications: also: Gly7-Leu8 peptide bond replaced by 1,4-disubstituted 1,2,3-triazole
For B13, the “EC50 (nM), intracellular calcium mobilization of cells expressing human KISS1R” value in the assay with human KISS1R receptor [3] worked out at 1.38 nM.

B14: peptide compound C3, Ac-Tyr-Asn-Trp-Asn-Ser-Phe-GlyΨ[Tz]Leu-Arg(Me)-Tyr-NH2 (peptide)
peptide: Ac-YNWNSFGL[Arg(Me)]Y-NH2
modifications: also: Gly7-Leu8 peptide bond replaced by 1,4-disubstituted 1,2,3-triazole
In the case of B14, the “EC50 (nM), intracellular calcium mobilization of cells expressing human KISS1R” value with human KISS1R receptor [2] came out at 0.014 nM.
